Test results published in article PMC6761100.

target: Myc.His.CK1a; assay: c-Myc immunoprecipitation (CK1a IP); settings: strains cultured in LL; n = 4; parent: est. 1.0; read off a plot

| ratio to parent | Sequence |
| --- | --- |
| 0.23 | FREQUENCY (FRQ), wild type (from UniProt P19970) L488V |
| 0.97 | FREQUENCY (FRQ), wild type (from UniProt P19970) Q325N |
| 0.68 | FREQUENCY (FRQ), wild type (from UniProt P19970) Q494N |
| 0.52 | FREQUENCY (FRQ), wild type (from UniProt P19970) V320I |
